From ChEMBL document CHEMBL1130856, “A new series of cyclic amino acids as inhibitors of S-adenosyl L-methionine synthetase” (Bioorg Med Chem Lett, 1998)

System: CSCC[C@H](N)C(=O)O
Description: Compound was evaluated for its inhibitory activity against recombinant S-adenosyl L-Methionine synthetase (alpha-isoform) in rat liver

Sequence of S-adenosylmethionine synthase isoform type-1 (Rattus norvegicus), P13444 (P13444 whole entry, canonical isoform): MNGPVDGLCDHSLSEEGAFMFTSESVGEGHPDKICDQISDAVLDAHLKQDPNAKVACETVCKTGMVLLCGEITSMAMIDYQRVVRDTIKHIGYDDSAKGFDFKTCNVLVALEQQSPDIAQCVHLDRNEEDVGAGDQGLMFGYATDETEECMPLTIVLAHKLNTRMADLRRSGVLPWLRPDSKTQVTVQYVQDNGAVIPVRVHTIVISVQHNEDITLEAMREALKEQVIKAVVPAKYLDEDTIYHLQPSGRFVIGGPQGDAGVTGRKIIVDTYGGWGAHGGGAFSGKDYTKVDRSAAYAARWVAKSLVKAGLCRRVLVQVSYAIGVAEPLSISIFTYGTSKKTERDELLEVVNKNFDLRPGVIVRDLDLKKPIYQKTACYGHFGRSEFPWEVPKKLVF

S-adenosylmethionine synthase isoform type-1 (Rattus norvegicus), P13444
Km: 70 µM
